Measurements reported in publication PMC5085866.
Like-named read-outs stand apart in the source and are kept apart here.

Experiments:
Test in all cases: AUC
[1] = molecular target: Enterococcus faecium LiaR W73C, full length (Enterococcus faecium)
[2] = molecular target: Enterococcus faecium LiaR W73C, full length (Enterococcus faecium); remark: listed apart in the source
[3] = molecular target: Enterococcus faecium LiaR DNA binding domain (residues 140-210) (Enterococcus faecium)
[4] = molecular target: Enterococcus faecium LiaR receiver domain (residues 1-139) (Enterococcus faecium)
[5] = molecular target: Enterococcus faecium LiaR receiver domain (residues 1-139) W73C (Enterococcus faecium)
[6] = molecular target: Enterococcus faecium LiaR receiver domain (residues 1-139) W73C (Enterococcus faecium); remark: listed apart in the source

Enterococcus faecium LiaR W73C, full length (natural protein)
Kd [1]: 182 µM | Kd [2]: 236 µM

Enterococcus faecium LiaR DNA binding domain (residues 140-210) (domain or fragment)
Kd [3]: 0.4 µM

Enterococcus faecium LiaR receiver domain (residues 1-139) (domain or fragment)
Kd [4]: 676 µM

Enterococcus faecium LiaR receiver domain (residues 1-139) W73C (domain or fragment)
Kd [5]: 94 µM | Kd [6]: 0.8 µM
